From paper PMC2945938, “The characterization of conserved binding motifs and potential target genes for M. tuberculosis MtrAB reveals a link between the two-component system and the drug resistance of M. smegmatis”

T1: MtrA (Mycobacterium tuberculosis, UniProt P9WGM7 1-228)
T1 sequence: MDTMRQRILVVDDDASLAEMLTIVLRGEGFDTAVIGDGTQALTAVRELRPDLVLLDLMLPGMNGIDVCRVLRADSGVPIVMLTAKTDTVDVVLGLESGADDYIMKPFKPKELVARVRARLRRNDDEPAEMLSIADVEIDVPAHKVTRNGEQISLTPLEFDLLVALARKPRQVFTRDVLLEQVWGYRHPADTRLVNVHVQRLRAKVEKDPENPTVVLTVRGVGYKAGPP

T2: MtrA (Mycobacterium tuberculosis) (UniProt P9WGM7)
T2 sequence: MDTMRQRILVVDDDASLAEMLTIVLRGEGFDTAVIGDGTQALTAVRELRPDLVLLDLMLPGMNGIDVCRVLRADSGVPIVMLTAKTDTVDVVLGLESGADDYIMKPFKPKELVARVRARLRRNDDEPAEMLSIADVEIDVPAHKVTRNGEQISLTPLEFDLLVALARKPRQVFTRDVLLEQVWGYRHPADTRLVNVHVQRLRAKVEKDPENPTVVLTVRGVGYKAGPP

B1: CglumepAp (dsDNA)
DNA 1: CCCCTAGCACGGCGTGTTTGG
DNA 2: CCAAACACGCCGTGCTAGGGG
B2: Negative control (dsDNA)
DNA 1: CGGAGGTGGTTTTCGCTGCT
DNA 2: AGCAGCGAAAACCACCTCCG
B3: Rv0341p (iniB) (dsDNA)
DNA 1: CGCCGGTCACGCCGGCGAACA
DNA 2: TGTTCGCCGGCGTGACCGGCG
B4: Rv0574cp (dsDNA)
DNA 1: GCGGTCTTGAGGACCTTCGGCCCCACCCACGAGGCCGCCG
DNA 2: CGGCGGCCTCGTGGGTGGGGCCGAAGGTCCTCAAGACCGC
B5: CgluproPp (dsDNA)
DNA 1: GACTTTTCACCCCGAACCTTA
DNA 2: TAAGGTTCGGGGTGAAAAGTC
B6: Rv3476cp (kgtP) (dsDNA)
DNA 1: CTGCATCCACGCCGGCGACACGCCGAGGGACG
DNA 2: CGTCCCTCGGCGTGTCGCCGGCGTGGATGCAG
B7: S1 (dsDNA)
DNA 1: GCGGTGTAGTTATCACGCCG
DNA 2: CGGCGTGATAACTACACCGC
B8: S4 (dsDNA)
DNA 1: GCGAGCCGTTGCCGGTAGGTTGCGGCTGGT
DNA 2: ACCAGCCGCAACCTACCGGCAACGGCTCGC
B9: S3 (dsDNA)
DNA 1: TTTCAGCGTGGAAACGGCACTC
DNA 2: GAGTGCCGTTTCCACGCTGAAA
B10: S2 (dsDNA)
DNA 1: TCACGCCGTTTCAGCGTGGAAACGGCACTC
DNA 2: GAGTGCCGTTTCCACGCTGAAACGGCGTGA
B11: S5 (dsDNA)
DNA 1: AACACGAGGATCGCGAGCCGTTGCCGGTAGGTTGCGGCTGGT
DNA 2: ACCAGCCGCAACCTACCGGCAACGGCTCGCGATCCTCGTGTT

molecular target: T1, MtrA; experiment: EMSA; conditions: protein: recombinant; tags: 6His (pET28a) or GST (pGEX-4T-1); chain copies: 2; label: 32P

Q: Does B1 bind?
A: binds

Q: Does B2 bind?
A: no binding

Q: Does B3 bind?
A: binds

Q: Does B4 bind?
A: binds

Q: Does B5 bind?
A: binds

Q: Does B6 bind?
A: binds

molecular target: T1, MtrA; experiment: EMSA; 100-600 nM MtrA; conditions: protein: recombinant; tags: 6His (pET28a) or GST (pGEX-4T-1); chain copies: 2; label: 32P

Q: Does B7 bind?
A: binds

Q: Does B8 bind?
A: no binding

Q: Does B9 bind?
A: no binding

same assay, conditions: protein: recombinant; tags: 6His (pET28a) or GST (pGEX-4T-1); chain copies: 2; label: 32P (EMSA)

Q: Does B10 bind?
A: binds

Q: Does B11 bind?
A: binds

molecular target: T2, MtrA (Mycobacterium tuberculosis); experiment: DNase I footprinting; conditions: not given

Q: Which binding does the source give for “AATTCTACGGAAAACTGTTAGCTTCGGGCGGTGTAGTTATCACGCCGTTTCAGCGTGGAAACGGCACTCGACAATCAAGCGAGGATGGC (double strand) [S6 (84 bp)]” here?
A: binds

Q: For “AATTCTAGCGGCCCGGACAACTTGAACCGGGTGTTTTCAACACGAGGATCGCGAGCCGTTGCCGGTAGGTTGCGGCTGGT (double strand) [S7 (75 bp)]”, which binding is on record?
A: binds
